IntAct's records for PubMed 19013460

B1: Thiamine metabolism regulatory protein THI3 (Saccharomyces cerevisiae), Q07471 (parent)
chain: MNSSYTQRYALPKCIAISDYLFHRLNQLNIHTIFGLSGEFSMPLLDKLYNIPNLRWAGNSNELNAAYAADGYSRLKGLGCLITTFGVGELSAINGVAGSYAEHVGILHIVGMPPTSAQTKQLLLHHTLGNGDFTVFHRIASDVACYTTLIIDSELCADEVDKCIKKAWIEQRPVYMGMPVNQVNLPIESARLNTPLDLQLHKNDPDVEKEVISRILSFIYKSQNPAIIVDACTSRQNLIEETKELCNRLKFPVFVTPMGKGTVNETDPQFGGVFTGSISAPEVREVVDFADFIIVIGCMLSEFSTSTFHFQYKTKNCALLYSTSVKLKNATYPDLSIKLLLQKILANLDESKLSYQPSEQPSMMVPRPYPAGNVLLRQEWVWNEISHWFQPGDIIITETGASAFGVNQTRFPVNTLGISQALWGSVGYTMGACLGAEFAVQEINKDKFPATKHRVILFMGDGAFQLTVQELSTIVKWGLTPYIFVMNNQGYSVDRFLHHRSDASYYDIQPWNYLGLLRVFGCTNYETKKIITVGEFRSMISDPNFATNDKIRMIEIMLPPRDVPQALLDRWVVEKEQSKQVQEENENSSAVNTPTPEFQPLLKKNQVGY
partner: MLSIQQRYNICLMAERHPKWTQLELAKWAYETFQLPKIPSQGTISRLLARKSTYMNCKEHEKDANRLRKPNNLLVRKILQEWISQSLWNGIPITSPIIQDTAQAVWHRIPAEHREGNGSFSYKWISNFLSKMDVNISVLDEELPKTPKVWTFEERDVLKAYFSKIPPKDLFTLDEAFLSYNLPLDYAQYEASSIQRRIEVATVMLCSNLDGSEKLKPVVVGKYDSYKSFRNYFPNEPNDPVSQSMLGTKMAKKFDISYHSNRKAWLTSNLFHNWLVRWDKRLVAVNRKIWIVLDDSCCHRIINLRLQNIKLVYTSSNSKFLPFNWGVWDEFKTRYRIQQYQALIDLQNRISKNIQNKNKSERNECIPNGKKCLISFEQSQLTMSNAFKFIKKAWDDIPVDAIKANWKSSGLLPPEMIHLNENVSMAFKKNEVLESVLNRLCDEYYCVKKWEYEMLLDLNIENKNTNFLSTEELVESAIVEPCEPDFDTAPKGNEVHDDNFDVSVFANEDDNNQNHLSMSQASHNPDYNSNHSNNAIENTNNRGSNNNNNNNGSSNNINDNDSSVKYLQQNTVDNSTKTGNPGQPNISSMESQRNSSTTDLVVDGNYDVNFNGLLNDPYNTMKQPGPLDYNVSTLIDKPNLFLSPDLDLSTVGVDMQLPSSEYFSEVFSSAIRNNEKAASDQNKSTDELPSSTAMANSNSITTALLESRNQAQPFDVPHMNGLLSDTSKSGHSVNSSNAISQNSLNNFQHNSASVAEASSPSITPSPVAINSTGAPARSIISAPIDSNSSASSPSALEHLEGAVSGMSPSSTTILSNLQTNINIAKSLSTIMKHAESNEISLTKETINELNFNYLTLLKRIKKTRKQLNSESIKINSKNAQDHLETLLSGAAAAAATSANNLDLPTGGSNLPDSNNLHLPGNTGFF

Variants of: B1
Settings: with pdc2_yeast PDC2, P32896
N488D was tested, and the “effect of a mutation on the interaction” value was “increasing interaction”.
